Here are results for one molecule from US9383366B2, “Blue fluorescent protein and methods of use thereof” (WiSys Technology Foundation, Inc., priority 2013, dated 2016).

For one data set, the system named is hydra. Nature of the data set: Injection of Sandercyanin protein into hydra, fluorescence localization. The data set is classed as in vivo. The settings on record: injected into hydra. The text has this:
We are currently imploring the localization of Sandercyanin in model organisms.

For data set [1] the following is noted: on excitation at 380 nm and 630 nm; cited from earlier work.
Data set [2] can be described thus: Spectral properties (absorption and fluorescence emission) of Sandercyanin protein. It is filed as physicochemical.
Setting [3] is: band maximum used for Stokes shift.

B1: Sandercyanin protein: native blue fluorescent bili-binding lipocalin protein from walleye mucus, SEQ ID NO: 1 (protein)
chain: QFIKPGRCPKPAVQEDFDAARYLGVWYDIQRLPNKFQKGECATATYSLSPGVGFSVFNRERLANGTIKSVIGSAIAEDPCEPAKLQFFHENAAPVPYWVLSTDYDNYALVYSCINLGASHAAYASIVSRQPTLPEETIKKLQGTMSSFGVGVDTLLTTNQDAAYCSAMNQ
modifications: Sandercyanin
Consider B1, for which the fluorescence after injection result in the data set on hydra is given as “showed fluorescence on the surface of tentacles”. Besides, in data set [1], the emission maxima is recorded as 678 nm. Also, in data set [2] (setting [3]), the absorption was 375 nm and the emission was determined as 675 nm. In data set [2] (difference between absorption and emission band maxima), the Stokes shift was about 300 nm.
